# Test results taken from publication PMC11761706.
# T1: Loz1AZZ (Schizosaccharomyces pombe, UniProt Q9UTA1 426-522)
# T1 sequence: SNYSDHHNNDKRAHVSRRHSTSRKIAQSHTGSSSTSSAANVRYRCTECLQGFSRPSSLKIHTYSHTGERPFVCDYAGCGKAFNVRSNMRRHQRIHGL
# B1: LRE DNA 14 bp (dsDNA)
# DNA 1: GCGACGATCATTGG
# DNA 2: CCAATGATCGTCGC
# Biological target: T1, Loz1AZZ
# Assay: NMR
binder,measurement,value
B1,binding result,binds
